Laboratory results taken from patent US20210380703A1 (RIGEL PHARMACEUTICALS, published 2021).

Key:
[1] = biological target: T1, mouse ACVR2A (mouse, UniProt P27038 20-135, limits assumed); experiment: ELISA
T1 construct: coated antigen of the initial ELISA
Summary of the method: (§1)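 Monoclonal antibodies were first applied to human or mouse ACVR2A, alongside biotinylated goat anti-human kappa light chain (positive control) and human Fc (negative control); binding was then determined by ELISA.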

[2] = biological target: T2, human ACVR2A (human, UniProt P27037 20-135, limits assumed); experiment: ELISA
T2 construct: coated antigen of the initial ELISA; also called activin receptor, type II A
Summary of the method: as §1

[3] = biological target: T3, biotinylated goat anti-human kappa light chain; experiment: ELISA, positive control
T3 construct: positive control of the ELISA
Summary of the method: as §1
Also: test concentration or dose not given here.

T1 sequence (P27038 20-135 limits assumed): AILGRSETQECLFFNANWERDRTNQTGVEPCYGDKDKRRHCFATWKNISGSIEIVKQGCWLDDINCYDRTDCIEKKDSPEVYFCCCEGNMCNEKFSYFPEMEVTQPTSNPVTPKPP
T2 sequence (P27037 20-135 limits assumed): as the sequence (P27038 20-135 limits assumed) above, with R20K, I73V counted along it

optical density [1] [OD]	optical density [2] [OD]	optical density [3] [OD]	Binder
3.21	3.4	3.21	373_D12 (antibody, V domains shown, Group III) VH: EVQLLESGGGLVQPGGSLRLSCAASGFTFDSYSMNWVRQAPGKGLEWVSSINYNSGYKGYADSVKGRFTISRDNSKNTLYLQMNSLRAEDTAVYYCARGANWHDTHLDYWGQGTLVTVSS VL: DIQMTQSPSSLSASVGDRVTITCRASQSILSYVNWYQQKPGKAPKLLIYAATSRASGVPSRFSGSGSGTDFTLTISSLQPEDFATYYCQQSYSLPLTFGGGTKVEIK
3.75	3.77	3	374_A06 (antibody, V domains shown, Group III) VH: EVQLLESGGGLVQPGGSLRLSCAASGFTFSSYSMNWVRQAPGKGLEWVSSINYNSGYTSYADSVKGRFTISRDNSKNTLYLQMNSLRAEDTAVYYCARGANWHDTHLDYWGQGTLVTVSS VL: DIQMTQSPSSLSASVGDRVTITCRASQSILSYLNWYQQKPGKAPKLVIYAATSRASGVPSRFSGSGSGTDFTLTISSLQPEDFATYYCQQSYDSPLTFGGGTKVEIK
1.35	0.93	3.08	373_H09 (antibody, V domains shown, Group III) VH: EVQLLESGGGLVQPGGSLRLSCAASGFTFSSYGMNWVRQAPGKGLEWVASINYNSGYKSYADSVKGRFTISRDNSKNTLYLQMNSLRAEDTAVYYCARGANWHDTHLDYWGQGTLVTVSS VL: DIQMTQSPSSLSASVGDRVTITCRASQSIITYLNWYQQKPGKAPKLVIYAATSRASGVPSRFSGSGSGTDFTLTISSLQPEDFATYYCQQSDDSPLTFGGGTKVEIK
3.67	3.65	3.28	373_G08 (antibody, V domains shown, Group III) VH: EVQLLESGGGLVQPGGSLRLSCAASGFTFDSYSMNWVRQAPGKGLEWVSNINYNGGYTSYADSVKGRFTISRDNSKNTLYLQMNSLRAEDTAVYYCARGANWHDTALDYWGQGTLVTVSS VL: DIQMTQSPSSLSASVGDRVTITCRASQSILTYLNWYQQKPGKAPKLLIYAATSLASGVPSRFSGSGSGTDFTLTISSLQPEDFATYYCQQSYDSPLTFGGGTKVEIK
3.7	3.69	3.07	374_B03 (antibody, V domains shown, Group III) VH: EVQLLESGGGLVQPGGSLRLSCAASGFTFDSYSMNWVRQAPGKGLEWVSGINYNGGYTSYADSVKGRFTISRDNSKNTLYLQMNSLRAEDTAVYYCARGANWHDTALDYWGQGTLVTVSS VL: DIQMTQSPSSLSASVGDRVTITCRASQSILTYLNWYQQKPGKAPKLVIYAATSRASGVPSRFSGSGSGTDFTLTISSLQPEDFATYYCQQSYDSPLTFGGGTKVEIK
3.64	3.58	2.97	374_A09 (antibody, V domains shown, Group III) VH: EVQLLESGGGLVQPGGSLRLSCAASGFTFSSYSMNWVRQAPGKGLEWVSSINYNGGYKGYADSVKGRFTISRDNSKNTLYLQMNSLRAEDTAVYYCARGANWHDTHLDYWGQGTLVTVSS VL: DIQMTQSPSSLSASVGDRVTITCRASQSILTYVNWYQQKPGKAPKLLIYAATSLASGVPSRFSGSGSGTDFTLTISSLQPEDFATYYCQQSYDSPLTFGGGTKVEIK
3.46	3.35	3.32	373_F11 (antibody, V domains shown, Group III) VH: EVQLLESGGGLVQPGGSLRLSCAASGFTFDSYGMHWVRQAPGKGLEWVSGINYNSGYTSYADSVKGRFTISRDNSKNTLYLQMNSLRAEDTAVYYCARGANWHDTHLDYWGQGTLVTVSS VL: DIQMTQSPSSLSASVGDRVTITCRASQSIVSYVNWYQQKPGKAPKLLIYAATSRASGVPSRFSGSGSGTDFTLTISSLQPEDFATYYCQQSYNLPLTFGGGTKVEIK
3.7	3.76	3.21	373_F08 (antibody, V domains shown, Group III) VH: EVQLLESGGGLVQPGGSLRLSCAASGFTFSSYSMNWVRQAPGKGLEWVSGINYNGGYTSYADSVKGRFTISRDNSKNTLYLQMNSLRAEDTAVYYCARGANWHDTALDYWGQGTLVTVSS VL: DIQMTQSPSSLSASVGDRVTITCRASQSILTYLNWYQQKPGKAPKLLIYAATSRASGVPSRFSGSGSGTDFTLTISSLQPEDFATYYCQQSYDTPLTFGGGTKVEIK
3.63	3.6	3.12	374_B08 (antibody, V domains shown, Group III) VH: EVQLLESGGGLVQPGGSLRLSCAASGFTFDSYSMNWVRQAPGKGLEWVAGINYNGGYTSYADSVKGRFTISRDNSKNTLYLQMNSLRAEDTAVYYCARGANWHDTALDYWGQGTLVTVSS VL: DIQMTQSPSSLSASVGDRVTITCRASQSIVSYVNWYQQKPGKAPKLLIYAATSRHSGVPSRFSGSGSGTDFTLTISSLQPEDFATYYCQQSYELPLTFGGGTKVEIK
3.22	3.25	3.06	373_F12 (antibody, V domains shown, Group III) VH: EVQLLESGGGLVQPGGSLRLSCAASGFTFSSYSMNWVRQAPGKGLEWVSNINYNGGYTGYADSVKGRFTISRDNSKNTLYLQMNSLRAEDTAVYYCARGANWHDTALDYWGQGTLVTVSS VL: DIQMTQSPSSLSASVGDRVTITCRASQSISTYLNWYQQKPGKAPKLVIYAATSRASGVPSRFSGSGSGTDFTLTISSLQPEDFATYYCQQSYETPLTFGGGTKVEIK
3.64	3.72	3.2	373_E10 (antibody, V domains shown, Group III) VH: EVQLLESGGGLVQPGGSLRLSCAASGFTFSDYSMNWVRQAPGKGLEWVSGINYNGGYTSYADSVKGRFTISRDNSKNTLYLQMNSLRAEDTAVYYCARGANWHDTALDYWGQGTLVTVSS VL: DIQMTQSPSSLSASVGDRVTITCRASQSILTYVNWYQQKPGKAPKLVIYAATSRHSGVPSRFSGSGSGTDFTLTISSLQPEDFATYYCQQSYETPLTFGGGTKVEIK
3.65	3.68	3.16	374_B05 (antibody, V domains shown, Group III) VH: EVQLLESGGGLVQPGGSLRLSCAASGFTFDSYSMNWVRQAPGKGLEWVSGINYNSGYTSYADSVKGRFTISRDNSKNTLYLQMNSLRAEDTAVYYCARGANWHDTALDYWGQGTLVTVSS VL: DIQMTQSPSSLSASVGDRVTITCRASQSIVSYLNWYQQKPGKAPKLLIYAATSRHSGVPSRFSGSGSGTDFTLTISSLQPEDFATYYCQQSYESPLTFGGGTKVEIK
3.27	3.25	3.23	373_H07 (antibody, V domains shown, Group III) VH: EVQLLESGGGLVQPGGSLRLSCAASGFTFSSYSMNWVRQAPGKGLEWVAGINYNGGYTSYADSVKGRFTISRDNSKNTLYLQMNSLRAEDTAVYYCARGANWHDTHLDYWGQGTLVTVSS VL: DIQMTQSPSSLSASVGDRVTITCRASQSIVTYLNWYQQKPGKAPKLLIYAASSLQSGVPSRFSGSGSGTDFTLTISSLQPEDFATYYCQQSYDSPLTFGGGTKVEIK
3.29	3.27	3.22	373_H03 (antibody, V domains shown, Group III) VH: EVQLLESGGGLVQPGGSLRLSCAASGFTFSSYSMNWVRQAPGKGLEWVSGINYNSGYKSYADSVKGRFTISRDNSKNTLYLQMNSLRAEDTAVYYCARGANWHDTALDYWGQGTLVTVSS VL: DIQMTQSPSSLSASVGDRVTITCRASQSILSYLNWYQQKPGKAPKLLIYATTSRASGVPSRFSGSGSGTDFTLTISSLQPEDFATYYCQQSYENPLTFGGGTKVEIK
